Test results: the supplement of paper PMC10126150
± gives the standard deviation of the averaged measurements.

The sequences below were run on ATP (assay: switch fluorescence ratio, 500 uM ATP over buffer (Cy3 cluster intensity, sum of 5 cycles each) (fold (ratio)); higher = stronger signal-on switching upon ATP binding; sequences stand for … in TCGTCGGCAGCGTCAGATGTGTATAAGAGACAGTTTTTTTTTTTTTTTTTTTTTTTTT…TC). Conditions: aptamer strand: ATP DNA aptamer (quencher-CACCTGGGGGAGTATTGCGGAGGAAGG + anchor), 100 nM annealed; ATP concentration: 500 uM.
Method in brief: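 Exposure to 500 uM ATP lasted 15 min at 22 °C before imaging, and a selection-buffer image was taken beforehand, for Cy3-labelled switching-strand clusters on a modified Illumina MiSeq flow-cell annealed to 100 nM quencher-labelled ATP aptamer. Five buffer/ATP cycles were run with NaOH stripping and re-annealing between them. The fluorescence ratio per cluster is summed target-cycle over summed buffer-cycle Cy3 intensity, averaged per switch-domain sequence. Clusters outside 100-1000 RFU were excluded.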
Work on GGGTTGGGAT yielded a switch fluorescence ratio of 0.995 ± 0.021. CGAGTATGGG gave a switch fluorescence ratio of 0.9859 ± 0.0011. GTCATGAGCG was tested, and the switch fluorescence ratio was 1 ± 0.012. ATTGGGGATT showed a switch fluorescence ratio of 1.013 ± 0.009. For AAAGGAGTTT, the switch fluorescence ratio was 1.01 ± 0.072. CAAGCGGACT showed a switch fluorescence ratio of 1.06 ± 0.049. With CATTTATCCT the switch fluorescence ratio was 1.07 ± 0.024. GCATTTTTCT gave a switch fluorescence ratio of 0.982 ± 0.031. With TGTCAGGGTT the switch fluorescence ratio was 1 ± 0.014. ATAATATAGG showed a switch fluorescence ratio of 0.99 ± 0.041. ATTAAGGCGC was tested, and the switch fluorescence ratio was 0.998 ± 0.029. For TGCTAGTTT, the switch fluorescence ratio was 0.98 ± 0.015. ACTTTGGAGG was tested, and the switch fluorescence ratio was 1.02 ± 0.034. GTTTGACACT gave a switch fluorescence ratio of 0.99 ± 0.042. In the case of GGCGAAAGAG, the switch fluorescence ratio is reported as 1.02 ± 0.049. AATTTGGCAG was tested, and the switch fluorescence ratio was 0.99 ± 0.025. AAGGTACCGT gave a switch fluorescence ratio of 1.05 ± 0.055. Sequence GAATCGTAGG has a switch fluorescence ratio of 0.986 ± 0.016. CTGTTAAAGG gave a switch fluorescence ratio of 0.999 ± 0.013. In the case of GTTCACCAAT, the switch fluorescence ratio is reported as 1 ± 0.07. AAGTCCGATA showed a switch fluorescence ratio of 0.9941 ± 0.0038. GGGTGAGTTT gave a switch fluorescence ratio of 1.038 ± 0.0051. TTAGCGTTTT gave a switch fluorescence ratio of 1.16 ± 0.25. TAGGGGAGAA showed a switch fluorescence ratio of 1.01 ± 0.014. In the case of TTTAAACGGT, the switch fluorescence ratio is reported as 1.03 ± 0.042. TTAAAGAAAT showed a switch fluorescence ratio of 1.05 ± 0.091. AGTAATGAAA showed a switch fluorescence ratio of 0.975 ± 0.035. With GATTGATGGT the switch fluorescence ratio was 0.992 ± 0.021. Work on AGTGGTTAGT yielded a switch fluorescence ratio of 1.05 ± 0.027. With GGAGTACGGC the switch fluorescence ratio was 1.06 ± 0.052. Work on GAGGGACGGG yielded a switch fluorescence ratio of 1.02 ± 0.025. With TACATGAAGG the switch fluorescence ratio was 0.995 ± 0.019. In the case of AACGGGCCAG, the switch fluorescence ratio is reported as 0.997 ± 0.028. For AGGCGGAGCT, the switch fluorescence ratio was 0.9926 ± 0.0033. With ACTCAGTTGT the switch fluorescence ratio was 1.06 ± 0.059. For GGGGGTAAGA, the switch fluorescence ratio was 0.981 ± 0.028. With TTTGAGGGTA the switch fluorescence ratio was 1.03 ± 0.1. For TCGTAGCTGT, the switch fluorescence ratio was 1.18 ± 0.052. For TAGTTGCATT, the switch fluorescence ratio was 0.994 ± 0.003. GACGTTTTTA was tested, and the switch fluorescence ratio was 1.01 ± 0.046. GAGTAGTGCT was tested, and the switch fluorescence ratio was 1.03 ± 0.018. For GATGAATGAC, the switch fluorescence ratio was 1.02 ± 0.016. With TTATTAAGGG the switch fluorescence ratio was 0.98 ± 0.047. With CGGCTAAAGA the switch fluorescence ratio was 0.976 ± 0.011. CGGACACTTT gave a switch fluorescence ratio of 1.019 ± 0.0091. For GGGAATCATG, the switch fluorescence ratio was 0.971 ± 0.044. With ACTACGTAAA the switch fluorescence ratio was 0.997 ± 0.046. GTTGTGTTGT showed a switch fluorescence ratio of 0.979 ± 0.028. GATCCATGCT showed a switch fluorescence ratio of 0.9536 ± 0.0019. CCGGAGGGGT showed a switch fluorescence ratio of 1.38 ± 0.018. For AGTTTGATG, the switch fluorescence ratio was 0.986 ± 0.041. AAGGTCTATT was tested, and the switch fluorescence ratio was 0.998 ± 0.06. For CTGTCGCTTA, the switch fluorescence ratio was 1.01 ± 0.019. Sequence AGGGCGCGTT has a switch fluorescence ratio of 0.9645 ± 0.0028. ATTTTTTTTC showed a switch fluorescence ratio of 0.989 ± 0.022. For TTTTTGTTGG, the switch fluorescence ratio was 1 ± 0.034. Sequence TGACAAAGGG has a switch fluorescence ratio of 0.988 ± 0.024. Work on TTCGTCATGG yielded a switch fluorescence ratio of 1.027 ± 0.0075. CATTGGGGAG was tested, and the switch fluorescence ratio was 1.01 ± 0.026. ATAGGGGAAT gave a switch fluorescence ratio of 0.9872 ± 0.0072. With GGGTGAGGAT the switch fluorescence ratio was 1 ± 0.046. For AGGGTCCACG, the switch fluorescence ratio was 0.947 ± 0.015. Sequence GGCTGTTGGG has a switch fluorescence ratio of 0.978 ± 0.012. AAAGAGGGG showed a switch fluorescence ratio of 0.98 ± 0.029. Work on CGTCGCGGGC yielded a switch fluorescence ratio of 1.0404 ± 0.00051. Work on ATAGATTCTC yielded a switch fluorescence ratio of 0.977 ± 0.025. ATTCTTTGTT gave a switch fluorescence ratio of 0.962 ± 0.045. Sequence GTGGGATAGG has a switch fluorescence ratio of 0.985 ± 0.038. In the case of GACCGTTGGA, the switch fluorescence ratio is reported as 0.987 ± 0.037. AAATGTGGCA showed a switch fluorescence ratio of 0.9862 ± 0.002. For CCGGAACATG, the switch fluorescence ratio was 1.23 ± 0.058. TACTGGTATG showed a switch fluorescence ratio of 1.03 ± 0.037. In the case of AAAGAAAGCG, the switch fluorescence ratio is reported as 0.997 ± 0.042. With GGCCCCGGGG the switch fluorescence ratio was 1.11 ± 0.069. Work on TTAGATTTAA yielded a switch fluorescence ratio of 0.998 ± 0.013. For ATAGAATAGA, the switch fluorescence ratio was 0.985 ± 0.02. In the case of TTAGGAACAC, the switch fluorescence ratio is reported as 1.07 ± 0.12. With AATGAGTATA the switch fluorescence ratio was 0.9915 ± 0.007. With TCACAGCCTG the switch fluorescence ratio was 0.9973 ± 0.0019. Sequence GGGGTAAAGA has a switch fluorescence ratio of 1.02 ± 0.036. CGGGCTGTTG gave a switch fluorescence ratio of 0.963 ± 0.033. CATGGGGAAG was tested, and the switch fluorescence ratio was 1.02 ± 0.011. For CTAGGAGCTT, the switch fluorescence ratio was 1 ± 0.044. ACGACCGGCA was tested, and the switch fluorescence ratio was 1.11 ± 0.098. ACAGCAGGGG was tested, and the switch fluorescence ratio was 1.25 ± 0.17. CAGCTGGTTT gave a switch fluorescence ratio of 1.004 ± 0.0077. TTTGTCAGGC gave a switch fluorescence ratio of 1.02 ± 0.053. With TATAAGGTGT the switch fluorescence ratio was 1.23 ± 0.11. AAAGGAGGGC showed a switch fluorescence ratio of 0.968 ± 0.067. Sequence GTGATATCTG has a switch fluorescence ratio of 0.98 ± 0.038. Work on GGGTTAAGGG yielded a switch fluorescence ratio of 0.984 ± 0.035. Sequence TGAAGGATGA has a switch fluorescence ratio of 0.9978 ± 0.0058. Sequence AAAGGGCGAC has a switch fluorescence ratio of 0.973 ± 0.014. TAAGATTACA gave a switch fluorescence ratio of 1.017 ± 0.006. Sequence CAAGGTCCGA has a switch fluorescence ratio of 0.99445 ± 0.00086. Sequence CTGGAATAGC has a switch fluorescence ratio of 2.21 ± 0.3. For AGCAGAAAGT, the switch fluorescence ratio was 1 ± 0.04. For ATTCGGTCTG, the switch fluorescence ratio was 0.9825 ± 0.006. Work on TTAGATTTTA yielded a switch fluorescence ratio of 0.961 ± 0.034. With GTTATTGCGA the switch fluorescence ratio was 0.997 ± 0.019.
